{"source": "paper PMC8079166", "about": "(Biochemical Journal, 2021)", "binders": {"B1": {"name": "Nef fragment containing H1 (residues 8–26) (peptide)", "peptide": "SSVVGWPTVRERMRRAEPA"}, "B2": {"name": "HIV-1 LAI Nef WLΔN (residues 56–205) (domain or fragment)", "chain": "AWLEAQEEEEVGFPVTPQVPLRPMTYKAAVDLSHFLKEKGGLEGLIHSQRRQDILDLWIYHTQGYFPDWQNYTPGPGVRYPLTFGWCYKLVPVEPDKVEEANKGENTSLLHPVSLHGMDDPEREVLEWRFDSRLAFHHVARELHPEYFKN"}, "B3": {"name": "Nef WLΔN preincubated with 50 µM Fyn_(R96I) SH3 (complex)", "chain 1": "B2 chain", "chain 2": "not shown", "modifications": "RED-NHS dye label"}, "B4": {"name": "Nef WLΔN preincubated with 50 µM FynR96 SH3 (complex)", "chain 1": "B2 chain", "chain 2": "not shown", "modifications": "RED-NHS dye label"}, "B5": {"name": "Nef WLΔN preincubated with 50 µM Fyn_(R96W) SH3 (complex)", "chain 1": "B2 chain", "chain 2": "not shown", "modifications": "RED-NHS dye label"}, "B6": {"name": "Full-length LAI Nef preincubated with 50 µM FynR96 SH3 (complex)", "chain 1": "[…]", "chain 2": "not shown", "modifications": "RED-NHS dye label"}, "B7": {"name": "Fyn SH3 domain R96I (domain or fragment)", "chain": "not shown"}, "B8": {"name": "Full-length LAI Nef preincubated with 50 µM Fyn_(R96I) SH3 (complex)", "chain 1": "[…]", "chain 2": "not shown", "modifications": "RED-NHS dye label"}, "B9": {"name": "HIV-1 LAI Nef ΔNΔL (residues 60–158;174–205) (domain or fragment)", "chain": "AQEEEEVGFPVTPQVPLRPMTYKAAVDLSHFLKEKGGLEGLIHSQRRQDILDLWIYHTQGYFPDWQNYTPGPGVRYPLTFGWCYKLVPVEPDKVEEANKDDPEREVLEWRFDSRLAFHHVARELHPEYFKN"}, "B10": {"name": "Nef ΔNΔL preincubated with 50 µM Fyn_(R96W) SH3 (complex)", "chain 1": "B9 chain", "chain 2": "not shown", "modifications": "RED-NHS dye label"}, "B11": {"name": "Nef ΔNΔL preincubated with 50 µM FynR96 SH3 (complex)", "chain 1": "B9 chain", "chain 2": "not shown", "modifications": "RED-NHS dye label"}, "B12": {"name": "Nef ΔNΔL preincubated with 50 µM Fyn_(R96I) SH3 (complex)", "chain 1": "B9 chain", "chain 2": "not shown", "modifications": "RED-NHS dye label"}, "B13": {"name": "Full-length LAI Nef preincubated with 50 µM Fyn_(R96W) SH3 (complex)", "chain 1": "[…]", "chain 2": "not shown", "modifications": "RED-NHS dye label"}, "B14": {"name": "Fyn SH3 domain R96W (domain or fragment)", "chain": "not shown"}, "B15": {"name": "Fyn SH3 domain, wild type (FynR96) (domain or fragment)", "chain": "not shown"}}, "key": {"[1]": {"molecular_target": "T1, HIV-1 LAI Nef ΔN (residues 60–205) (HIV-1, LAI isolate, UniProt P03406 60-205)", "experiment": "MST"}, "[2]": {"molecular_target": "B2", "experiment": "MST"}, "[3]": {"molecular_target": "B9", "experiment": "MST"}, "[4]": {"molecular_target": "p85 subunit of PI3 kinase, nSH2–iSH2–cSH2 fragment (UniProt P27986 322-724)", "experiment": "MST"}, "[5]": {"molecular_target": "T1, HIV-1 LAI Nef ΔN (residues 60–205)", "experiment": "ITC"}, "[6]": {"molecular_target": "B2", "experiment": "ITC"}, "[7]": {"molecular_target": "HIV-1 SF2 Nef, full-length (HIV-1, SF2 isolate, UniProt P03407)", "experiment": "ITC"}, "[8]": {"molecular_target": "HIV-1 LAI Nef, full-length (HIV-1, LAI isolate, UniProt P03406)", "experiment": "ITC"}, "[9]": {"molecular_target": "B9", "experiment": "ITC"}}, "data": [{"binder": "B1", "values": [{"measurement": "Kd", "setting": "[1]", "result": "699 ± 252", "unit": "µM"}, {"measurement": "Kd", "setting": "[2]", "result": "1350 ± 219", "unit": "µM"}, {"measurement": "Kd", "setting": "[3]", "result": "303 ± 50", "unit": "µM"}]}, {"binder": "B2", "values": [{"measurement": "Kd", "setting": "[4]", "result": "72 ± 8", "unit": "µM"}]}, {"binder": "B3", "values": [{"measurement": "Kd", "setting": "[4]", "result": "107 ± 12", "unit": "µM"}]}, {"binder": "B4", "values": [{"measurement": "Kd", "setting": "[4]", "result": "104 ± 11", "unit": "µM"}]}, {"binder": "B5", "values": [{"measurement": "Kd", "setting": "[4]", "result": "108 ± 14", "unit": "µM"}]}, {"binder": "B6", "values": [{"measurement": "Kd", "setting": "[4]", "result": "141 ± 14", "unit": "µM"}]}, {"binder": "B7", "values": [{"measurement": "Kd", "setting": "[5]", "result": 5.06, "unit": "µM"}, {"measurement": "dH", "setting": "[5]", "result": -9.49, "unit": "kcal/mol"}, {"measurement": "stoichiometry N", "setting": "[5]", "result": 0.87}, {"measurement": "Kd", "setting": "[6]", "result": 7.55, "unit": "µM"}, {"measurement": "dH", "setting": "[6]", "result": -5.14, "unit": "kcal/mol"}, {"measurement": "stoichiometry N", "setting": "[6]", "result": 1.01}, {"measurement": "Kd", "setting": "[7]", "result": 0.02, "unit": "µM"}, {"measurement": "dH", "setting": "[7]", "result": -18.5, "unit": "kcal/mol"}, {"measurement": "stoichiometry N", "setting": "[7]", "result": 0.98}, {"measurement": "Kd", "setting": "[8]", "result": 0.79, "unit": "µM"}, {"measurement": "dH", "setting": "[8]", "result": -9.73, "unit": "kcal/mol"}, {"measurement": "stoichiometry N", "setting": "[8]", "result": 0.93}, {"measurement": "Kd", "setting": "[9]", "result": 3.86, "unit": "µM"}, {"measurement": "dH", "setting": "[9]", "result": -8.13, "unit": "kcal/mol"}, {"measurement": "stoichiometry N", "setting": "[9]", "result": 0.97}, {"measurement": "Kd", "setting": "[3]", "result": "24 ± 8", "unit": "µM"}]}, {"binder": "B8", "values": [{"measurement": "Kd", "setting": "[4]", "result": "135 ± 10", "unit": "µM"}]}, {"binder": "B9", "values": [{"measurement": "Kd", "setting": "[4]", "result": "53 ± 3", "unit": "µM"}]}, {"binder": "B10", "values": [{"measurement": "Kd", "setting": "[4]", "result": "79 ± 16", "unit": "µM"}]}, {"binder": "B11", "values": [{"measurement": "Kd", "setting": "[4]", "result": "47 ± 8", "unit": "µM"}]}, {"binder": "B12", "values": [{"measurement": "Kd", "setting": "[4]", "result": "96 ± 18", "unit": "µM"}]}, {"binder": "B13", "values": [{"measurement": "Kd", "setting": "[4]", "result": "161 ± 17", "unit": "µM"}]}, {"binder": "B14", "values": [{"measurement": "Kd", "setting": "[5]", "result": 1.28, "unit": "µM"}, {"measurement": "dH", "setting": "[5]", "result": -13.5, "unit": "kcal/mol"}, {"measurement": "stoichiometry N", "setting": "[5]", "result": 0.9}, {"measurement": "Kd", "setting": "[6]", "result": 1.45, "unit": "µM"}, {"measurement": "dH", "setting": "[6]", "result": -7, "unit": "kcal/mol"}, {"measurement": "stoichiometry N", "setting": "[6]", "result": 0.94}, {"measurement": "Kd", "setting": "[7]", "result": 0.12, "unit": "µM"}, {"measurement": "dH", "setting": "[7]", "result": -13.5, "unit": "kcal/mol"}, {"measurement": "stoichiometry N", "setting": "[7]", "result": 0.91}, {"measurement": "Kd", "setting": "[8]", "result": 1.43, "unit": "µM"}, {"measurement": "dH", "setting": "[8]", "result": -12, "unit": "kcal/mol"}, {"measurement": "stoichiometry N", "setting": "[8]", "result": 0.96}, {"measurement": "Kd", "setting": "[9]", "result": 0.78, "unit": "µM"}, {"measurement": "dH", "setting": "[9]", "result": -11.2, "unit": "kcal/mol"}, {"measurement": "stoichiometry N", "setting": "[9]", "result": 0.98}]}, {"binder": "B15", "values": [{"measurement": "Kd", "setting": "[5]", "result": 83.3, "unit": "µM"}, {"measurement": "dH", "setting": "[5]", "result": -8.2, "unit": "kcal/mol"}, {"measurement": "Kd", "setting": "[6]", "result": 50.8, "unit": "µM"}, {"measurement": "dH", "setting": "[6]", "result": -3.39, "unit": "kcal/mol"}, {"measurement": "Kd", "setting": "[7]", "result": 28.7, "unit": "µM"}, {"measurement": "dH", "setting": "[7]", "result": -14.1, "unit": "kcal/mol"}, {"measurement": "Kd", "setting": "[8]", "result": 58.5, "unit": "µM"}, {"measurement": "dH", "setting": "[8]", "result": -11, "unit": "kcal/mol"}, {"measurement": "Kd", "setting": "[9]", "result": 24.3, "unit": "µM"}, {"measurement": "dH", "setting": "[9]", "result": -3.35, "unit": "kcal/mol"}]}]}
